# Results: the supplement of paper PMC7877785
# ± gives the uncertainty stated by the source.
# Assay: self-splicing fitness, log relative to wild type (ln ratio); higher = more splicing; Tetrahymena group I intron in knt gene, E. coli kanamycin selection, DiMSum; sequences stand for … in CUCUCU…GGAGGGAAAAGUUAUCAGGCAUGCACCUGGUAGCUAGUCUUUAAACCAAUAGAUUGCAUCGGUUUAAAAGGCAAGACCGUCAAAUUGCGGGAAAGGGGUCAACAGCCGUUCAGUACCAAGUCUCAGGGGAAACUUUGAGAUGGCCUUGCAAAGGGUAUGGUAAUAAGCUGACGGACAUGGUCCUAACCACGCAGCCAAGUCCUAAGUCAACAGAUCUUCUGUUGAUAUGGAUGCAGUUCACAGACUAAAUGUCGGUCGGGGAAGAUGUAUUCUUCUCAUAAGAUAUAGUCGGACCUCUCCUUAAUGGGAGCUAGCGGAUGAAGUGAUGCAACACUGGAGCCGCUGGGAACUAAUUUGUAUGCGAAAGUAUAUUGAUUAGUUUUGGAGUACUCGUGGUCG
# In short: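 A randomised library covering all eight P1ex-region intron nucleotides was built with the intron in the knt kanamycin-resistance gene on pET-22b(+) and held in E. coli BL21(DE3). Cells were grown overnight at 37°C or 30°C on LB agar, with or without 25 μg/mL kanamycin, plus 100 μg/mL carbenicillin, 50 μM IPTG and 0.2% rhamnose, and pooled colonies were amplicon-sequenced on an Illumina HiSeq 2500. DiMSum fitness is the error-weighted combination of wild-type-normalised replicate fold changes, kanamycin versus none.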
sequence,measurement,setting,value
CAAUAGCAAUAUUACGUCGG,self-splicing fitness (ln),30 °C,-0.177 ± 0.069
same,self-splicing fitness (ln),37 °C,0.202 ± 0.083
AAGCAGCAAUAUUACGACUU,self-splicing fitness (ln),30 °C,-0.223 ± 0.074
same,self-splicing fitness (ln),37 °C,-0.323 ± 0.086
CAGUAGCAAUAUUACGUCUC,self-splicing fitness (ln),30 °C,-3.93 ± 0.37
same,self-splicing fitness (ln),37 °C,-2.13 ± 0.27
CAGAAGCAAUAUUACGGUAG,self-splicing fitness (ln),30 °C,-0.817 ± 0.065
same,self-splicing fitness (ln),37 °C,-0.323 ± 0.08
UCCAAGCAAUAUUACGGGAG,self-splicing fitness (ln),30 °C,-2.57 ± 0.16
same,self-splicing fitness (ln),37 °C,-2.9 ± 0.35
UUGUAGCAAUAUUACGCUUU,self-splicing fitness (ln),37 °C,-2.81 ± 0.31
CAGUAGCAAUAUUACGCCUC,self-splicing fitness (ln),30 °C,-2.93 ± 0.46
same,self-splicing fitness (ln),37 °C,-2.4 ± 0.44
CGCCAGCAAUAUUACGGCCG,self-splicing fitness (ln),30 °C,-2.9 ± 0.14
same,self-splicing fitness (ln),37 °C,-0.755 ± 0.18
GUAGAGCAAUAUUACGGAGG,self-splicing fitness (ln),37 °C,-1.69 ± 0.43
GGGAAGCAAUAUUACGUCUA,self-splicing fitness (ln),30 °C,0.132 ± 0.17
same,self-splicing fitness (ln),37 °C,-0.25 ± 0.18
UCCGAGCAAUAUUACGAAUA,self-splicing fitness (ln),30 °C,-2.95 ± 0.25
GAUUAGCAAUAUUACGCCGG,self-splicing fitness (ln),30 °C,-2.88 ± 0.45
same,self-splicing fitness (ln),37 °C,-1.96 ± 0.41
UAUUAGCAAUAUUACGCUGC,self-splicing fitness (ln),30 °C,-2.92 ± 0.27
same,self-splicing fitness (ln),37 °C,-2.59 ± 0.49
UGGAAGCAAUAUUACGGUCC,self-splicing fitness (ln),30 °C,-2.67 ± 0.15
same,self-splicing fitness (ln),37 °C,-1.51 ± 0.14
CGUAAGCAAUAUUACGUGAC,self-splicing fitness (ln),30 °C,-3.04 ± 0.15
same,self-splicing fitness (ln),37 °C,-2.33 ± 0.18
UUAUAGCAAUAUUACGGAGG,self-splicing fitness (ln),30 °C,-1.68 ± 0.31
same,self-splicing fitness (ln),37 °C,-2.37 ± 0.32
UGUUAGCAAUAUUACGCUGA,self-splicing fitness (ln),30 °C,-2.26 ± 0.44
AUUCAGCAAUAUUACGUAGA,self-splicing fitness (ln),30 °C,-1.35 ± 0.066
same,self-splicing fitness (ln),37 °C,-0.424 ± 0.094
ACUAAGCAAUAUUACGACGA,self-splicing fitness (ln),30 °C,0.0648 ± 0.13
same,self-splicing fitness (ln),37 °C,0.181 ± 0.13
GCCGAGCAAUAUUACGUUUC,self-splicing fitness (ln),30 °C,-3.12 ± 0.14
same,self-splicing fitness (ln),37 °C,-2.28 ± 0.15
AGACAGCAAUAUUACGAUAA,self-splicing fitness (ln),30 °C,-2.68 ± 0.16
same,self-splicing fitness (ln),37 °C,-0.931 ± 0.15
UAAAAGCAAUAUUACGAGGC,self-splicing fitness (ln),30 °C,-2.69 ± 0.34
same,self-splicing fitness (ln),37 °C,-2.67 ± 0.36
UAACAGCAAUAUUACGGAUG,self-splicing fitness (ln),30 °C,-1.51 ± 0.053
same,self-splicing fitness (ln),37 °C,-0.304 ± 0.063
UUGGAGCAAUAUUACGUAGG,self-splicing fitness (ln),30 °C,-3.11 ± 0.23
same,self-splicing fitness (ln),37 °C,-1.86 ± 0.15
AACUAGCAAUAUUACGGUGU,self-splicing fitness (ln),30 °C,-1.77 ± 0.083
same,self-splicing fitness (ln),37 °C,-0.956 ± 0.099
CCAGAGCAAUAUUACGGAAG,self-splicing fitness (ln),30 °C,-2.32 ± 0.13
same,self-splicing fitness (ln),37 °C,-2.1 ± 0.19
GAAUAGCAAUAUUACGAUCC,self-splicing fitness (ln),30 °C,-1.16 ± 0.14
same,self-splicing fitness (ln),37 °C,-0.622 ± 0.15
CGGUAGCAAUAUUACGAUUC,self-splicing fitness (ln),30 °C,-2.84 ± 0.17
same,self-splicing fitness (ln),37 °C,-1.69 ± 0.13
UACAAGCAAUAUUACGGACC,self-splicing fitness (ln),30 °C,-2.74 ± 0.14
same,self-splicing fitness (ln),37 °C,-0.499 ± 0.18
UUUAAGCAAUAUUACGUAAU,self-splicing fitness (ln),30 °C,-2.15 ± 0.11
same,self-splicing fitness (ln),37 °C,-1.74 ± 0.12
AACAAGCAAUAUUACGCACC,self-splicing fitness (ln),30 °C,-0.717 ± 0.097
same,self-splicing fitness (ln),37 °C,-0.435 ± 0.14
GGGCAGCAAUAUUACGGAAA,self-splicing fitness (ln),30 °C,-2.77 ± 0.21
same,self-splicing fitness (ln),37 °C,-2.26 ± 0.19
GCUAAGCAAUAUUACGCUAA,self-splicing fitness (ln),30 °C,-3.29 ± 0.34
same,self-splicing fitness (ln),37 °C,-2.3 ± 0.21
ACUUAGCAAUAUUACGUGCU,self-splicing fitness (ln),30 °C,-1.9 ± 0.094
same,self-splicing fitness (ln),37 °C,-1.06 ± 0.1
AAGCAGCAAUAUUACGCAAG,self-splicing fitness (ln),30 °C,-2.43 ± 0.19
same,self-splicing fitness (ln),37 °C,-0.222 ± 0.098
UGUUAGCAAUAUUACGUGCG,self-splicing fitness (ln),30 °C,-1.23 ± 0.11
same,self-splicing fitness (ln),37 °C,-0.303 ± 0.14
UAUGAGCAAUAUUACGGAUG,self-splicing fitness (ln),30 °C,-2.09 ± 0.12
same,self-splicing fitness (ln),37 °C,-1.64 ± 0.17
AGCCAGCAAUAUUACGAGAC,self-splicing fitness (ln),30 °C,-3.57 ± 0.18
same,self-splicing fitness (ln),37 °C,-2.61 ± 0.16
